B1: DLC1 (parent)
chain: HVTHWMGQPFNSDDRNTACHHGLV
B2: FADS1 (parent)
chain: LNFQIEHHLFPTMPRHNYHKVAPL

Variants of: B1
Assay: protein stability index of a GFP-peptide fusion (GPS, HEK-293T) (PSI 1-6); higher = more stable
Details: c terminus: a fixed tail appended
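Further: lentivirally expressed fusions sorted by FACS into six bins by GFP to DsRed ratio, PSI derived from sequencing read proportions per bin multiplied by bin number.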

| Variant | protein stability index |
| --- | --- |
| HVTHWMGQPFNSDDRNTACHHGLY | 1.69 |
| HVTHWMGQPFNSDDRNTACHHGLQ | 2.19 |
| HVTHWMGQPFNSDDRNTACHHGLM | 2.04 |
| HVTHWMGQPFNSDDRNTACHHGLI | 2.08 |
| HVTHWMGQPFNSDDRNTACHHGLT | 2.39 |
| HVTHWMGQPFNSDDRNTACHHGLN | 2.05 |
| HVTHWMGQPFNSDDRNTACHHGLL | 2.35 |
| HVTHWMGQPFNSDDRNTACHHGLS | 2.35 |
| HVTHWMGQPFNSDDRNTACHHGLR | 2.22 |
| HVTHWMGQPFNSDDRNTACHHGLP | 2.22 |
| HVTHWMGQPFNSDDRNTACHHGLW | 2.09 |
| HVTHWMGQPFNSDDRNTACHHGLK | 2.6 |

Variants of: B2
Assay: as above
Details: c terminus: a fixed tail appended

| Variant | protein stability index |
| --- | --- |
| LNFKIEHHLFPTMPRHNYHKVAPL | 1.92 |
| LNFHIEHHLFPTMPRHNYHKVAPL | 2.67 |
| LNFVIEHHLFPTMPRHNYHKVAPL | 3.42 |
| LNFDIEHHLFPTMPRHNYHKVAPL | 1.66 |
| LNFNIEHHLFPTMPRHNYHKVAPL | 2.22 |
| LNFLIEHHLFPTMPRHNYHKVAPL | 3.1 |
| LNFRIEHHLFPTMPRHNYHKVAPL | 1.6 |
| LNFFIEHHLFPTMPRHNYHKVAPL | 2.52 |
| LNFAIEHHLFPTMPRHNYHKVAPL | 1.44 |
| LNFTIEHHLFPTMPRHNYHKVAPL | 2.74 |
| LNFIIEHHLFPTMPRHNYHKVAPL | 3.5 |
| LNFCIEHHLFPTMPRHNYHKVAPL | 1.86 |
| LNFGIEHHLFPTMPRHNYHKVAPL | 2.08 |
| LNFSIEHHLFPTMPRHNYHKVAPL | 1.3 |
| LNFPIEHHLFPTMPRHNYHKVAPL | 1.24 |
| LNFYIEHHLFPTMPRHNYHKVAPL | 3.01 |
| LNFEIEHHLFPTMPRHNYHKVAPL | 2.25 |
| YNFQIEHHLFPTMPRHNYHKVAPL | 1.93 |
| CNFQIEHHLFPTMPRHNYHKVAPL | 2.11 |
| TNFQIEHHLFPTMPRHNYHKVAPL | 2.03 |
| INFQIEHHLFPTMPRHNYHKVAPL | 2.2 |
| ANFQIEHHLFPTMPRHNYHKVAPL | 1.91 |
| DNFQIEHHLFPTMPRHNYHKVAPL | 1.31 |
| WNFQIEHHLFPTMPRHNYHKVAPL | 3.02 |
| ENFQIEHHLFPTMPRHNYHKVAPL | 2.29 |
| RNFQIEHHLFPTMPRHNYHKVAPL | 2.48 |

| Variant | protein stability index |
| --- | --- |
| NNFQIEHHLFPTMPRHNYHKVAPL | 1.95 |
| VNFQIEHHLFPTMPRHNYHKVAPL | 2.18 |
| QNFQIEHHLFPTMPRHNYHKVAPL | 2.31 |
| GNFQIEHHLFPTMPRHNYHKVAPL | 2.63 |
| SNFQIEHHLFPTMPRHNYHKVAPL | 1.84 |
| KNFQIEHHLFPTMPRHNYHKVAPL | 2.03 |
| MNFQIEHHLFPTMPRHNYHKVAPL | 1.63 |
| HNFQIEHHLFPTMPRHNYHKVAPL | 2.1 |
| FNFQIEHHLFPTMPRHNYHKVAPL | 3.4 |
| PNFQIEHHLFPTMPRHNYHKVAPL | 2.26 |
| LNFQIEMHLFPTMPRHNYHKVAPL | 2.96 |
| LNFQIEWHLFPTMPRHNYHKVAPL | 3.85 |
| LNFQIEIHLFPTMPRHNYHKVAPL | 3.32 |
| LNFQIERHLFPTMPRHNYHKVAPL | 1.65 |
| LNFQIECHLFPTMPRHNYHKVAPL | 3.38 |
| LNFQIEKHLFPTMPRHNYHKVAPL | 2.75 |
| LNFQIEDHLFPTMPRHNYHKVAPL | 1.93 |
| LNFQIENHLFPTMPRHNYHKVAPL | 1.4 |
| LNFQIEAHLFPTMPRHNYHKVAPL | 2.31 |
| LNFQIEEHLFPTMPRHNYHKVAPL | 1.76 |
| LNFQIEPHLFPTMPRHNYHKVAPL | 2.19 |
| LNFQIEGHLFPTMPRHNYHKVAPL | 1.55 |
| LNFQIETHLFPTMPRHNYHKVAPL | 2.82 |
| LNFQIESHLFPTMPRHNYHKVAPL | 1.81 |
| LNFQIEQHLFPTMPRHNYHKVAPL | 2.45 |
| LNFQIELHLFPTMPRHNYHKVAPL | 3.47 |

| Variant | protein stability index |
| --- | --- |
| LNFQIEHHLDPTMPRHNYHKVAPL | 1.74 |
| LNFQIEHHLIPTMPRHNYHKVAPL | 2.97 |
| LNFQIEHHLEPTMPRHNYHKVAPL | 1.24 |
| LNFQIEHHLQPTMPRHNYHKVAPL | 1.92 |
| LNFQIEHHLGPTMPRHNYHKVAPL | 2.73 |
| LNFQIEHHLMPTMPRHNYHKVAPL | 1.37 |
| LNFQIEHHLPPTMPRHNYHKVAPL | 1.24 |
| LNFQIEHHLNPTMPRHNYHKVAPL | 2.28 |
| LNFQIEHHLLPTMPRHNYHKVAPL | 1.55 |
| LNFQIEHHLAPTMPRHNYHKVAPL | 2.17 |
| LNFQIEHHLKPTMPRHNYHKVAPL | 2.14 |
| LNFQIEHHLRPTMPRHNYHKVAPL | 1.87 |
| LNFQIEHHLHPTMPRHNYHKVAPL | 3.04 |
| LNFQIEHHLCPTMPRHNYHKVAPL | 2.71 |
| LNFQAEHHLFPTMPRHNYHKVAPL | 1.83 |
| LNFQCEHHLFPTMPRHNYHKVAPL | 2.33 |
| LNFQKEHHLFPTMPRHNYHKVAPL | 2.06 |
| LNFQMEHHLFPTMPRHNYHKVAPL | 1.63 |
| LNFQEEHHLFPTMPRHNYHKVAPL | 2.1 |
| LNFQDEHHLFPTMPRHNYHKVAPL | 2.4 |
| LNFQWEHHLFPTMPRHNYHKVAPL | 1.43 |
| LNFQFEHHLFPTMPRHNYHKVAPL | 2.87 |
| LNFQQEHHLFPTMPRHNYHKVAPL | 1.83 |
| LNFQHEHHLFPTMPRHNYHKVAPL | 1.83 |
| LNFQVEHHLFPTMPRHNYHKVAPL | 2.73 |
| LNFQTEHHLFPTMPRHNYHKVAPL | 1.65 |

| Variant | protein stability index |
| --- | --- |
| LNFQNEHHLFPTMPRHNYHKVAPL | 2.52 |
| LNFQYEHHLFPTMPRHNYHKVAPL | 2.57 |
| LNFQLEHHLFPTMPRHNYHKVAPL | 2.35 |
| LNFQGEHHLFPTMPRHNYHKVAPL | 2.01 |
| LNFQSEHHLFPTMPRHNYHKVAPL | 2.18 |
| LNFQPEHHLFPTMPRHNYHKVAPL | 2.14 |
| LNFQREHHLFPTMPRHNYHKVAPL | 2.27 |
| LNFQIEHKLFPTMPRHNYHKVAPL | 1.93 |
| LNFQIEHFLFPTMPRHNYHKVAPL | 2.4 |
| LNFQIEHALFPTMPRHNYHKVAPL | 1.87 |
| LNFQIEHGLFPTMPRHNYHKVAPL | 1.58 |
| LNFQIEHLLFPTMPRHNYHKVAPL | 2.44 |
| LNFQIEHILFPTMPRHNYHKVAPL | 3.23 |
| LNFQIEHMLFPTMPRHNYHKVAPL | 2.14 |
| LNFQIEHNLFPTMPRHNYHKVAPL | 2.06 |
| LNFQIEHRLFPTMPRHNYHKVAPL | 1.74 |
| LNFQIEHYLFPTMPRHNYHKVAPL | 2.57 |
| LNFQIEHVLFPTMPRHNYHKVAPL | 1.5 |
| LNFQIEHQLFPTMPRHNYHKVAPL | 2.35 |
| LNFQIEHSLFPTMPRHNYHKVAPL | 2.12 |
| LNFQIEHPLFPTMPRHNYHKVAPL | 2.11 |
| LNFQIEHTLFPTMPRHNYHKVAPL | 2.26 |
| LNFQIEHELFPTMPRHNYHKVAPL | 3.1 |
| LNFQIEHWLFPTMPRHNYHKVAPL | 2.58 |
| LNFQIEHCLFPTMPRHNYHKVAPL | 2.41 |
| LNFQIEHDLFPTMPRHNYHKVAPL | 2.14 |

| Variant | protein stability index |
| --- | --- |
| LNCQIEHHLFPTMPRHNYHKVAPL | 2.22 |
| LNPQIEHHLFPTMPRHNYHKVAPL | 1.95 |
| LNVQIEHHLFPTMPRHNYHKVAPL | 1.96 |
| LNRQIEHHLFPTMPRHNYHKVAPL | 1.96 |
| LNLQIEHHLFPTMPRHNYHKVAPL | 1.73 |
| LNAQIEHHLFPTMPRHNYHKVAPL | 2.58 |
| LNKQIEHHLFPTMPRHNYHKVAPL | 1.88 |
| LNTQIEHHLFPTMPRHNYHKVAPL | 2.4 |
| LNEQIEHHLFPTMPRHNYHKVAPL | 2.65 |
| LNDQIEHHLFPTMPRHNYHKVAPL | 3.03 |
| LNSQIEHHLFPTMPRHNYHKVAPL | 2.15 |
| LNHQIEHHLFPTMPRHNYHKVAPL | 1.83 |
| LNQQIEHHLFPTMPRHNYHKVAPL | 2.17 |
| LNGQIEHHLFPTMPRHNYHKVAPL | 2.42 |
| LNMQIEHHLFPTMPRHNYHKVAPL | 2.31 |
| LNYQIEHHLFPTMPRHNYHKVAPL | 1.37 |
| LNWQIEHHLFPTMPRHNYHKVAPL | 1.92 |
| LNNQIEHHLFPTMPRHNYHKVAPL | 2.52 |
| LNFQIHHHLFPTMPRHNYHKVAPL | 2.31 |
| LNFQIPHHLFPTMPRHNYHKVAPL | 2.11 |
| LNFQILHHLFPTMPRHNYHKVAPL | 2.27 |
| LNFQIKHHLFPTMPRHNYHKVAPL | 2.21 |
| LNFQIGHHLFPTMPRHNYHKVAPL | 1.77 |
| LNFQIAHHLFPTMPRHNYHKVAPL | 2.54 |
| LNFQIWHHLFPTMPRHNYHKVAPL | 2.57 |
| LNFQIQHHLFPTMPRHNYHKVAPL | 2.38 |

| Variant | protein stability index |
| --- | --- |
| LNFQIMHHLFPTMPRHNYHKVAPL | 2.24 |
| LNFQIRHHLFPTMPRHNYHKVAPL | 2.07 |
| LNFQISHHLFPTMPRHNYHKVAPL | 1.8 |
| LNFQIVHHLFPTMPRHNYHKVAPL | 3.6 |
| LNFQICHHLFPTMPRHNYHKVAPL | 2.65 |
| LNFQINHHLFPTMPRHNYHKVAPL | 1.19 |
| LNFQIDHHLFPTMPRHNYHKVAPL | 2.54 |
| LNFQIYHHLFPTMPRHNYHKVAPL | 2.06 |
| LNFQIFHHLFPTMPRHNYHKVAPL | 3.4 |
| LDFQIEHHLFPTMPRHNYHKVAPL | 2.91 |
| LCFQIEHHLFPTMPRHNYHKVAPL | 1.98 |
| LYFQIEHHLFPTMPRHNYHKVAPL | 1.77 |
| LTFQIEHHLFPTMPRHNYHKVAPL | 2.76 |
| LWFQIEHHLFPTMPRHNYHKVAPL | 3.67 |
| LRFQIEHHLFPTMPRHNYHKVAPL | 2.09 |
| LEFQIEHHLFPTMPRHNYHKVAPL | 2.42 |
| LSFQIEHHLFPTMPRHNYHKVAPL | 1.88 |
| LGFQIEHHLFPTMPRHNYHKVAPL | 1.24 |
| LKFQIEHHLFPTMPRHNYHKVAPL | 2.28 |
| LLFQIEHHLFPTMPRHNYHKVAPL | 3.82 |
| LIFQIEHHLFPTMPRHNYHKVAPL | 3.16 |
| LPFQIEHHLFPTMPRHNYHKVAPL | 1.65 |
| LHFQIEHHLFPTMPRHNYHKVAPL | 2.37 |
| LVFQIEHHLFPTMPRHNYHKVAPL | 2.5 |
| LAFQIEHHLFPTMPRHNYHKVAPL | 2.02 |
| LQFQIEHHLFPTMPRHNYHKVAPL | 1.91 |

| Variant | protein stability index |
| --- | --- |
| LMFQIEHHLFPTMPRHNYHKVAPL | 1.53 |
| LNFQIEHHRFPTMPRHNYHKVAPL | 1.87 |
| LNFQIEHHWFPTMPRHNYHKVAPL | 3.23 |
| LNFQIEHHEFPTMPRHNYHKVAPL | 1.23 |
| LNFQIEHHTFPTMPRHNYHKVAPL | 1.42 |
| LNFQIEHHDFPTMPRHNYHKVAPL | 2.04 |
| LNFQIEHHFFPTMPRHNYHKVAPL | 3.13 |
| LNFQIEHHMFPTMPRHNYHKVAPL | 1.95 |
| LNFQIEHHNFPTMPRHNYHKVAPL | 1.57 |
| LNFQIEHHYFPTMPRHNYHKVAPL | 2.1 |
| LNFQIEHHGFPTMPRHNYHKVAPL | 2.83 |
| LNFQIEHHKFPTMPRHNYHKVAPL | 1.36 |
| LNFQIEHHSFPTMPRHNYHKVAPL | 2.71 |
| LNFQIEHHPFPTMPRHNYHKVAPL | 1.5 |
| LNFQIEHHAFPTMPRHNYHKVAPL | 1.39 |
| LNFQIEHHVFPTMPRHNYHKVAPL | 2.37 |
| LNFQIEHHIFPTMPRHNYHKVAPL | 2.01 |
| LNFQIEHHQFPTMPRHNYHKVAPL | 1.34 |
| LNFQIEHHCFPTMPRHNYHKVAPL | 1.72 |
| LNFQIEHHHFPTMPRHNYHKVAPL | 1.8 |

Reference: the supplement of paper PMC10567573
